{"source": "patent US20250249113A1", "about": "(DEBIOPHARM RESEARCH AND MANUFACTURING S A, published 2025)", "binders": {"B1": {"name": "Compound 5: DM1-Mal-Phe-Lys-Lys(PEG4-Mal-Cys-Ac)-Phe-OH (peptide)", "peptide": "{DM1-Mal}-FKK([PEG4′-Mal-Cys-Ac])F-OH", "modifications": "reading uncertain; also: printed as DM1-Mal-Phe-Lys-Lys(PEG4-Mal-Cys-Ac)-Phe-OH"}}, "biological_target": "recombinant human Cathepsin B (human, UniProt P07858 80-333)", "assay": "cell-based or functional assay", "note": "Primed or numbered codes have the meaning given here. Side-chain parts run from the residue outwards. PEG4′ = not defined here; Mal = not defined here", "data": [{"binder": "B1", "values": [{"measurement": "Cat B-induced drug release, fold faster than the reference Cys-MC-Val-Cit-PABC-MMAF", "value": 20, "unit": "times"}]}]}
